Reference: patent US20090092631A1 (TRIPEP, published 2009)
“And” between values parts separate entries of the source, which are not always exact repeats. Identical values can stand only once. Ends that are not written are not given here. * marks the point of attachment. Galα1‑3Galβ1‑O(CH2)3NH2 = OC[C@H]1O[C@H](O[C@H]2[C@@H](O)[C@@H](CO)O[C@@H](OCCCN*)[C@@H]2O)[C@H](O)[C@@H](O)[C@H]1O

biological target: T1, gp120 of HIV-1 IIIB virus (HIV-1 IIIB, UniProt P04578 33-856); assay: cell-based or functional assay

| Binder | neutralization (inhibition of syncytia formation, U87 CD4+ CXCR4+ cells), peptide without serum | decrease in the infectivity (RT activity day 11, H9 cells, HIV IIIB) at 0.01 µg/ml glycopeptide (approximately 5 nM) with 5 or 10% human serum | neutralization (RT activity day 11, H9 cells, HIV IIIB) at 1 µg/ml glycopeptide with 5 or 10% human serum |
| --- | --- | --- | --- |
| DNSNQIKILGNQGSFL (not fully specified (residue 1), also called GP2; glycopeptide 2) [Gal-CD4-101] | < 40% | – | – |
| D(Galα1‑3Galβ1‑O(CH2)3NH2)QFHWKNSNQIKILGN (also called GP1; glycopeptide 1) [Gal-CD4-100] | < 40% | – | – |
| KLNDRADSRRSLWDQ [non-glycosylated CD4 peptide, Seq. Id. No. 9] | < 40% | – | – |
| NSNQIKILGNQGSFL [CD4 peptide alone, Seq. Id. No. 5 (non-glycosylated)] | < 40% | – | – |
| DKLNDRADSRRSLWDQ (not fully specified (residue 1), also called GP6; glycopeptide 6) [Gal-CD4-105] | < 40% | – | – |
| DTKGPSKLNDRADSRR (not fully specified (residue 1), also called glycopeptide 5) [Gal-CD4-104] | < 40% | > 50% | 90% |
| QFHWKNSNQIKILGN [CD4 peptide alone, Seq. Id. No. 4 (non-glycosylated)] | < 40% | – | – |
| DKILGNQGSFLTKGPS (not fully specified (residue 1), also called GP3; glycopeptide 3) [Gal-CD4-102] | < 40% | > 50% | 90% |
| QGSFLTKGPSKLNDR [CD4 peptide alone, Seq. Id. No. 7 (non-glycosylated)] | < 40% | – | – |
| TKGPSKLNDRADSRR [non-glycosylated CD4 peptide, Seq. Id. No. 8] | < 40% | – | – |
| D(Galα1‑3Galβ1‑O(CH2)3NH2)QGSFLTKGPSKLNDR (also called GP4; glycopeptide 4) [Gal-CD4-103] | < 40% | > 50% | 90% |
| KILGNQGSFLTKGPS [CD4 peptide alone, Seq. Id. No. 6 (non-glycosylated)] | < 40% | – | – |

biological target: T1, gp120 of HIV-1 IIIB virus; assay: cell-based or functional assay; remark: another data set of the same source

| Binder | percentage of neutralization of the virus (plaque assay, U87 CD4 cells, HIV-1 IIIB); glycosylated Sp. exchanger 0.1 ug/ml & 1:10 dilution human serum | percentage of neutralization of the virus (plaque assay, U87 CD4 cells, HIV-1 IIIB); glycosylated Sp. exchanger 0.1 ug/ml & 1:20 dilution human serum | percentage of neutralization of the virus (plaque assay, U87 CD4 cells, HIV-1 IIIB); glycosylated Sp. exchanger 0.1 ug/ml, no serum | percentage of neutralization of the virus (plaque assay, U87 CD4 cells, HIV-1 IIIB); glycosylated Sp. exchanger 1 ug/ml & 1:10 dilution human serum | percentage of neutralization of the virus (plaque assay, U87 CD4 cells, HIV-1 IIIB); glycosylated Sp. exchanger 1 ug/ml & 1:20 dilution human serum | percentage of neutralization of the virus (plaque assay, U87 CD4 cells, HIV-1 IIIB); glycosylated Sp. exchanger 1 ug/ml, no serum | percentage of neutralization of the virus (plaque assay, U87 CD4 cells, HIV-1 IIIB); glycosylated Sp. exchanger 10 ug/ml & 1:10 dilution human serum | percentage of neutralization of the virus (plaque assay, U87 CD4 cells, HIV-1 IIIB); glycosylated Sp. exchanger 10 ug/ml & 1:20 dilution human serum | percentage of neutralization of the virus (plaque assay, U87 CD4 cells, HIV-1 IIIB); glycosylated Sp. exchanger 10 ug/ml, no serum | percentage of neutralization of the virus (plaque assay, U87 CD4 cells, HIV-1 IIIB); CD4 peptide alone 0.1 ug/ml |
| --- | --- | --- | --- | --- | --- | --- | --- | --- | --- | --- |
| DNSNQIKILGNQGSFL (not fully specified (residue 1), also called GP2; glycopeptide 2) [Gal-CD4-101] | < 0.3 fraction (0.3 equals 30%) | < 0.3 fraction (0.3 equals 30%) | < 0.3 fraction (0.3 equals 30%) | 0.39 fraction (0.3 equals 30%) | 0.32 fraction (0.3 equals 30%) | < 0.3 fraction (0.3 equals 30%) | 0.49 fraction (0.3 equals 30%) | 0.429 fraction (0.3 equals 30%) | < 0.3 fraction (0.3 equals 30%) | – |
| D(Galα1‑3Galβ1‑O(CH2)3NH2)QFHWKNSNQIKILGN (also called GP1; glycopeptide 1) [Gal-CD4-100] | 0.48 fraction (0.3 equals 30%) | 0.47 fraction (0.3 equals 30%) | < 0.3 fraction (0.3 equals 30%) | 0.48 fraction (0.3 equals 30%) | 0.47 fraction (0.3 equals 30%) | < 0.3 fraction (0.3 equals 30%) | 0.55 fraction (0.3 equals 30%) | 0.48 fraction (0.3 equals 30%) | < 0.3 fraction (0.3 equals 30%) | – |
| NSNQIKILGNQGSFL [CD4 peptide alone, Seq. Id. No. 5 (non-glycosylated)] | – | – | – | – | – | – | – | – | – | < 0.3 fraction (0.3 equals 30%) |
| DKLNDRADSRRSLWDQ (not fully specified (residue 1), also called GP6; glycopeptide 6) [Gal-CD4-105] | 0.76 fraction (0.3 equals 30%) | 0.71 fraction (0.3 equals 30%) | < 0.3 fraction (0.3 equals 30%) | 0.75 fraction (0.3 equals 30%) | 0.75 fraction (0.3 equals 30%) | < 0.3 fraction (0.3 equals 30%) | 0.78 fraction (0.3 equals 30%) | 0.74 fraction (0.3 equals 30%) | < 0.3 fraction (0.3 equals 30%) | – |
| DTKGPSKLNDRADSRR (not fully specified (residue 1), also called glycopeptide 5) [Gal-CD4-104] | 0.778 fraction (0.3 equals 30%) | 0.701 fraction (0.3 equals 30%) | – | 0.821 fraction (0.3 equals 30%) | 0.667 fraction (0.3 equals 30%) | 0.548 fraction (0.3 equals 30%) | 0.83 fraction (0.3 equals 30%) | 0.642 fraction (0.3 equals 30%) | 0.552 fraction (0.3 equals 30%) | – |
| QFHWKNSNQIKILGN [CD4 peptide alone, Seq. Id. No. 4 (non-glycosylated)] | – | – | – | – | – | – | – | – | – | < 0.3 fraction (0.3 equals 30%) |
| DKILGNQGSFLTKGPS (not fully specified (residue 1), also called GP3; glycopeptide 3) [Gal-CD4-102] | 0.5 fraction (0.3 equals 30%) | < 0.3 fraction (0.3 equals 30%) | < 0.3 fraction (0.3 equals 30%) | 0.42 fraction (0.3 equals 30%) | < 0.3 fraction (0.3 equals 30%) | – | 0.6 fraction (0.3 equals 30%) | < 0.3 fraction (0.3 equals 30%) | – | – |
| QGSFLTKGPSKLNDR [CD4 peptide alone, Seq. Id. No. 7 (non-glycosylated)] | – | – | – | – | – | – | – | – | – | < 0.3 fraction (0.3 equals 30%) |
| D(Galα1‑3Galβ1‑O(CH2)3NH2)QGSFLTKGPSKLNDR (also called GP4; glycopeptide 4) [Gal-CD4-103] | 0.439 fraction (0.3 equals 30%) | < 0.3 fraction (0.3 equals 30%) | < 0.3 fraction (0.3 equals 30%) | 0.461 fraction (0.3 equals 30%) | < 0.3 fraction (0.3 equals 30%) | < 0.3 fraction (0.3 equals 30%) | 0.454 fraction (0.3 equals 30%) | < 0.3 fraction (0.3 equals 30%) | < 0.3 fraction (0.3 equals 30%) | – |
| KILGNQGSFLTKGPS [CD4 peptide alone, Seq. Id. No. 6 (non-glycosylated)] | – | – | – | – | – | – | – | – | – | < 0.3 fraction (0.3 equals 30%) |

same assay, conditions: not given

| Binder | percentage of neutralization of the virus (plaque assay, U87 CD4 cells, HIV-1 IIIB); CD4 peptide alone 1 ug/ml | percentage of neutralization of the virus (plaque assay, U87 CD4 cells, HIV-1 IIIB); CD4 peptide alone 10 ug/ml |
| --- | --- | --- |
| NSNQIKILGNQGSFL [CD4 peptide alone, Seq. Id. No. 5 (non-glycosylated)] | < 0.3 fraction (0.3 equals 30%) | < 0.3 fraction (0.3 equals 30%) |
| QFHWKNSNQIKILGN [CD4 peptide alone, Seq. Id. No. 4 (non-glycosylated)] | < 0.3 fraction (0.3 equals 30%) | < 0.3 fraction (0.3 equals 30%) |
| QGSFLTKGPSKLNDR [CD4 peptide alone, Seq. Id. No. 7 (non-glycosylated)] | < 0.3 fraction (0.3 equals 30%) | < 0.3 fraction (0.3 equals 30%) |
| KILGNQGSFLTKGPS [CD4 peptide alone, Seq. Id. No. 6 (non-glycosylated)] | < 0.3 fraction (0.3 equals 30%) | < 0.3 fraction (0.3 equals 30%) |

biological target: T2, LAI gp120 molecule (PerkinElmer, Denmark) (HIV-1 LAI, UniProt P03377 33-516); assay: ELISA on coated LAI gp120, detection with 1:10 or 1:20 human serum
T2 construct: domain: gp120; also called gp120 from LAI virus

| Binder | lowest glycopeptide concentration at which binding was detected |
| --- | --- |
| DNSNQIKILGNQGSFL (not fully specified (residue 1), also called GP2; glycopeptide 2) [Gal-CD4-101] | ~5 nM and 10 ng/ml |
| D(Galα1‑3Galβ1‑O(CH2)3NH2)QFHWKNSNQIKILGN (also called GP1; glycopeptide 1) [Gal-CD4-100] | ~5 nM and 10 ng/ml |
| DKLNDRADSRRSLWDQ (not fully specified (residue 1), also called GP6; glycopeptide 6) [Gal-CD4-105] | 10 ng/ml and ~5 nM |
| DTKGPSKLNDRADSRR (not fully specified (residue 1), also called glycopeptide 5) [Gal-CD4-104] | 10 ng/ml and ~5 nM |
| DKILGNQGSFLTKGPS (not fully specified (residue 1), also called GP3; glycopeptide 3) [Gal-CD4-102] | ~5 nM and 10 ng/ml |
| D(Galα1‑3Galβ1‑O(CH2)3NH2)QGSFLTKGPSKLNDR (also called GP4; glycopeptide 4) [Gal-CD4-103] | 10 ng/ml and ~5 nM |
